{
  "source": "paper doi:10.1101/2023.01.20.524748",
  "target": "B.1.1.529 (BA.1) S1 + S2 Trimer-His Recombinant Protein (SARS-CoV-2) (UniProt P0DTC2)",
  "test": "cryo-EM structure",
  "data": [
    {"substance": "B.1.1.529 (BA.1) S1 + S2 Trimer-His Recombinant Protein (from UniProt P0DTC2 324-533) (natural protein)", "values": [
      {"measurement": "stoichiometry N", "result": 3}
    ]}
  ]
}
